B1: RAD52(1-303) (domain or fragment)
chain: MSGTEEAILGGRDSHPAAGGGSVLCFGQCQYTAEEYQAIQKALRQRLGPEYISSRMAGGGQKVCYIEGHRVINLANEMFGYNGWAHSITQQNVDFVDLNNGKFYVGVCAFVRVQLKDGSYHEDVGYGVSEGLKSKALSLEKARKEAVTDGLKRALRSFGNALGNCILDKDYLRSLNKLPRQLPLEVDLTKAKRQDLEPSVEEARYNSCRPNMALGHPQLQQVTSPSRPSHAVIPADQDCSSRSLSSSAVESEATHQRKLRQKQLQQQFRERMEKQQVRVSTPSAEKSEAAPPAPPVTHSTPVT
B2: Full-length RAD52 tagged with 6X-His enhanced green fluorescent protein (EGFP-RAD52) (natural protein)
chain: MSGTEEAILGGRDSHPAAGGGSVLCFGQCQYTAEEYQAIQKALRQRLGPEYISSRMAGGGQKVCYIEGHRVINLANEMFGYNGWAHSITQQNVDFVDLNNGKFYVGVCAFVRVQLKDGSYHEDVGYGVSEGLKSKALSLEKARKEAVTDGLKRALRSFGNALGNCILDKDYLRSLNKLPRQLPLEVDLTKAKRQDLEPSVEEARYNSCRPNMALGHPQLQQVTSPSRPSHAVIPADQDCSSRSLSSSAVESEATHQRKLRQKQLQQQFRERMEKQQVRVSTPSAEKSEAAPPAPPVTHSTPVTVSEPLLEKDFLAGVTQELIKTLEDNSEKWAVTPDAGDGVVKPSSRADPAQTSDTLALNNQMVTQNRTPHSVCHQKPQAKSGSWDLQTYSADQRTTGNWESHRKSQDMKKRKYDPS

Target: replication protein A (RPA) heterotrimer, full-length (UniProt P15927)
Assay: FluorIA

| Binder | percent inhibition of EGFP-RAD52 binding at a molar ratio of 1:1 [%] | RFU (NC, no inhibitor) [RFU] |
| --- | --- | --- |
| B1 | 50 |  |
| B2 |  | 17100 |

Source: PMC7968734
